Results as given in patent publication US20190322765A1 (Hoffmann-La Roche, published 2019).
“And” between values parts separate entries of the source, which are not always exact repeats. Equal entries are not always repeated.

Assays:
[1] = target: T1, human IL-2R βγ heterodimer, subunit-Fc knobs-into-holes fusion (human); test: SPR, receptor on CM5, 25°C, 1:1 fit
T1 construct: The entries may hold a leader peptide; also called Hu IL-2R βγ; human IL2-R β knob γ hole heterodimer

[2] = target: T2, cynomolgus IL-2R βγ heterodimer (β knob γ hole Fc fusion) (cynomolgus); test: SPR, receptor on CM5, 25°C, 1:1 fit
T2 construct: also called Cyno IL-2R βγ

[3] = target: T3, murine IL-2R βγ heterodimer (β knob γ hole Fc fusion) (murine, UniProt P16297 27-240; P34902 23-263); test: SPR, receptor on CM5, 25°C, 1:1 fit
T3 construct: also called Mu IL-2R βγ; mouse IL-2R βγ heterodimer; not shown: Fc knob/hole part
T3 sequence (looked up) 1: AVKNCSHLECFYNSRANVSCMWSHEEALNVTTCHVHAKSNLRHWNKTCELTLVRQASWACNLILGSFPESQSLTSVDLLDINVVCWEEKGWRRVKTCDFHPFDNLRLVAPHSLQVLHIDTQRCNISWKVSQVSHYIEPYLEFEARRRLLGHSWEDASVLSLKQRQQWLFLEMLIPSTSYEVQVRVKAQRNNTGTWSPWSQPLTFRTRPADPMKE
T3 sequence (looked up) 2: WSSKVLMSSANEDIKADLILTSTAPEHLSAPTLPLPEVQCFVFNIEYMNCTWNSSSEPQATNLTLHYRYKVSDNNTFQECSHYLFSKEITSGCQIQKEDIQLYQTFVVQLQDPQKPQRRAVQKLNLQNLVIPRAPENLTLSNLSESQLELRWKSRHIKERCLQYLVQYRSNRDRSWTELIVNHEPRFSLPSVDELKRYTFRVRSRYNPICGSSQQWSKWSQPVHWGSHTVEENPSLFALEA

[4] = target: T4, murine IL-2R α-subunit, recombinant monomeric (murine, UniProt P01590 22-236, limits assumed); test: SPR, receptor on CM5, 25°C
T4 construct: also called Mu IL-2R α
T4 sequence (looked up): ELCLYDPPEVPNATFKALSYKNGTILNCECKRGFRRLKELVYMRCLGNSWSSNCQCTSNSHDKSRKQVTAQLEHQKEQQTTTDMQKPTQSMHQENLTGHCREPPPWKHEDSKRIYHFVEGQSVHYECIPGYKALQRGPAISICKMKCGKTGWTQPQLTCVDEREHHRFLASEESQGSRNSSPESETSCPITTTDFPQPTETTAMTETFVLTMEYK

[5] = target: T5, cynomolgus IL-2R α-subunit, recombinant monomeric (cynomolgus, UniProt H6WS54 22-240); test: SPR, receptor on CM5, 25°C
T5 construct: also called Cyno IL-2R α
T5 sequence: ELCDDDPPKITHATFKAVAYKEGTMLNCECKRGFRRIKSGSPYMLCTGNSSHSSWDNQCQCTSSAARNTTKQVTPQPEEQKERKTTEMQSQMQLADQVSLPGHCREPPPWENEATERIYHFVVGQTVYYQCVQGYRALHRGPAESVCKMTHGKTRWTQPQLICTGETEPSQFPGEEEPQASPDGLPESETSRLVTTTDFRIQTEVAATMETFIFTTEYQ

[6] = target: T6, human DPPIV on transfected HEK 293 cells (human, UniProt P27487 1-766); test: FACS on HEK 293-human DPPIV cells, with HEK mock-transfected cells, cells only and sec. antibody as controls; concentration not shown
T6 construct: whole, on cells; also called CD26

[7] = target: FAP on GM05389 fibroblasts; test: FACS on GM05389 fibroblasts, surface-bound construct detected with secondary antibody after the times shown (internalization analysis); concentration not shown
[8] = target: T1, human IL-2R βγ heterodimer, subunit-Fc …; test: SPR, receptor on CM5, 25°C, apparent KD, 1:1 fit
[9] = target: T7, human IL-2R α-subunit, monomeric, with AcTev cleavage site and Avi His tag (human); test: SPR, receptor on CM5, 25°C
T7 construct: also called Hu IL-2R α; CD25
T7 chain: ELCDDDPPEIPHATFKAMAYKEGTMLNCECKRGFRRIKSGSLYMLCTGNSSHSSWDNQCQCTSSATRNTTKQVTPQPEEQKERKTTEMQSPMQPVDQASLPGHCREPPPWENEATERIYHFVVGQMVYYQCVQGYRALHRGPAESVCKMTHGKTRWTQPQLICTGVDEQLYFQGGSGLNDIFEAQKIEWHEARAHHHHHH

[10] = target: T8, human FAP expressed on stably transfected HEK293 cells (human, UniProt Q12884 1-760); test: FACS on FAP-expressing HEK cells
T8 construct: whole, on cells

[11] = target: T8, human FAP expressed on stably …; test: FACS on HEK 293-human FAP cells, median fluorescence against concentration
[12] = target: T9, IL-2R βγ heterodimer on human cells (NK92 cells, NK and T cells of PBMC) (human, UniProt P14784 27-551; P31785 23-369); test: cell-based or functional assay
T9 sequence (looked up) 1: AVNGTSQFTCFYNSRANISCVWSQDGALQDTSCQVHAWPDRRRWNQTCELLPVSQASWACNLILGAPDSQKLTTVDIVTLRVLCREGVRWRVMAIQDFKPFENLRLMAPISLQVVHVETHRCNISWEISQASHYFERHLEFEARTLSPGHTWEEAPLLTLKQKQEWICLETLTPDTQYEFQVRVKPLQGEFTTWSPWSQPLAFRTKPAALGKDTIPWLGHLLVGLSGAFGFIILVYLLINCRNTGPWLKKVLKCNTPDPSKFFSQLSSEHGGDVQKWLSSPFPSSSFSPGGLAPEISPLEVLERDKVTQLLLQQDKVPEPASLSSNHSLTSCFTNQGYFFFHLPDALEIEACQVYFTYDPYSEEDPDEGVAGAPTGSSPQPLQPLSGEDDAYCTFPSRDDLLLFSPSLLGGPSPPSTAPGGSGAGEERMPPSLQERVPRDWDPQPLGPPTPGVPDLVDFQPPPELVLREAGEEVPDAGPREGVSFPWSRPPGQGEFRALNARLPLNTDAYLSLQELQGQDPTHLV
T9 sequence (looked up) 2: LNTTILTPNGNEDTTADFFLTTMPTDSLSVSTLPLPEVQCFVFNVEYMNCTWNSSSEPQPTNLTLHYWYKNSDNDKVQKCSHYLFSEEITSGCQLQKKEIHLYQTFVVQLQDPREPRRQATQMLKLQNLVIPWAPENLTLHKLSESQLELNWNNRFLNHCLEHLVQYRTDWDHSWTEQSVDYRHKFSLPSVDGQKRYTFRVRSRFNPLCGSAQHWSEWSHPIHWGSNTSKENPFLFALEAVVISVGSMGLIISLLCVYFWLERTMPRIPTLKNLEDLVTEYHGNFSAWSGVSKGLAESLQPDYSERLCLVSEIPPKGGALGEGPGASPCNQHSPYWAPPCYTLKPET

[13] = target: T1, human IL-2R βγ heterodimer, subunit-Fc …; test: SPR, receptor on CM5, 37°C, 1:1 fit
[14] = target: T2, cynomolgus IL-2R βγ heterodimer (β knob …); test: SPR, receptor on CM5, 37°C, 1:1 fit
[15] = target: T3, murine IL-2R βγ heterodimer (β knob γ …); test: SPR, receptor on CM5, 37°C, 1:1 fit

B1: 28H1 Fab-IL-2 qm-Fab (other)
chain: EVQLLESGGGLVQPGGSLRLSCAASGFTFSSHAMSWVRQAPGKGLEWVSAIWASGEQYYADSVKGRFTISRDNSKNTLYLQMNSLRAEDTAVYYCAKGWLGNFDYWGQGTLVTVSSASTKGPSVFPLAPSSKSTSGGTAALGCLVKDYFPEPVTVSWNSGALTSGVHTFPAVLQSSGLYSLSSVVTVPSSSLGTQTYICNVNHKPSNTKVDKKVEPKSCDSGGGGSGGGGSGGGGAPASSSTKKTQLQLEHLLLDLQMILNGINNYKNPKLTRMLTAKFAMPKKATELKHLQCLEEELKPLEEVLNGAQSKNFHLRPRDLISNINVIVLELKGSETTFMCEYADETATIVEFLNRWITFAQSIISTLTSGGGGSGGGGSGGGGEVQLLESGGGLVQPGGSLRLSCAASGFTFSSHAMSWVRQAPGKGLEWVSAIWASGEQYYADSVKGRFTISRDNSKNTLYLQMNSLRAEDTAVYYCAKGWLGNFDYWGQGTLVTVSSASTKGPSVFPLAPSSKSTSGGTAALGCLVKDYFPEPVTVSWNSGALTSGVHTFPAVLQSSGLYSLSSVVTVPSSSLGTQTYICNVNHKPSNTKVDKKVEPKSCD
light: EIVLTQSPGTLSLSPGERATLSCRASQSVSRSYLAWYQQKPGQAPRLLIIGASTRATGIPDRFSGSGSGTDFTLTISRLEPEDFAVYYCQQGQVIPPTFGQGTKVEIKRTVAAPSVFIFPPSDEQLKSGTASVVCLLNNFYPREAKVQWKVDNALQSGNSQESVTEQDSKDSTYSLSSTLTLSKADYEKHKVYACEVTHQGLSSPVTKSFNRGEC
notes: Fab-IL-2-Fab immunoconjugate against FAP with quadruple mutant IL-2; also called FAP 28H1 qm
Kd [1]: 7.5 nM and 6.9 nM
Kd [2]: 8.9 nM and 8.4 nM
Kd [3]: 66 nM and 54 nM
binding result [4]: no binding (tested: 25 nM)
binding result [5]: no binding (tested: 25 nM)
binding result [6]: no binding
binding result [7]: binds
Kd [8]: 11.4 nM
binding result [9]: no binding (tested: 300 nM)
EC50 [10]: 0.7 nM
EC50 (read off the curve) [11]: ~10 nM
EC50 of STAT5 phosphorylation, CD8+ T cells [12]: 20.6 nM
EC50 of STAT5 phosphorylation, NK cells [12]: 3.47 nM
EC50 of STAT5 phosphorylation, Treg cells [12]: 19.7 nM
Kd [13]: 14.3 nM and 14.7 nM
Kd [14]: 21.3 nM and 21.2 nM
Kd [15]: 142 nM and 106 nM
